Data reported in the supplement of paper PMC7877785.
± gives the uncertainty stated by the source.

Test: self-splicing fitness, log relative to wild type (ln ratio); higher = more splicing; Tetrahymena group I intron in knt gene, E. coli kanamycin selection, DiMSum; sequences stand for … in CUCUCU…GGAGGGAAAAGUUAUCAGGCAUGCACCUGGUAGCUAGUCUUUAAACCAAUAGAUUGCAUCGGUUUAAAAGGCAAGACCGUCAAAUUGCGGGAAAGGGGUCAACAGCCGUUCAGUACCAAGUCUCAGGGGAAACUUUGAGAUGGCCUUGCAAAGGGUAUGGUAAUAAGCUGACGGACAUGGUCCUAACCACGCAGCCAAGUCCUAAGUCAACAGAUCUUCUGUUGAUAUGGAUGCAGUUCACAGACUAAAUGUCGGUCGGGGAAGAUGUAUUCUUCUCAUAAGAUAUAGUCGGACCUCUCCUUAAUGGGAGCUAGCGGAUGAAGUGAUGCAACACUGGAGCCGCUGGGAACUAAUUUGUAUGCGAAAGUAUAUUGAUUAGUUUUGGAGUACUCGUGGUCG
Method in brief: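 DiMSum derived fitness as the error-weighted combination of fold changes across replicates, kanamycin versus no kanamycin, normalised to wild type. E. coli BL21(DE3) held the library, which randomised all eight P1ex-region intron nucleotides within the knt kanamycin-resistance gene on pET-22b(+). Six replicate transformations grew overnight at 37°C or 30°C on LB agar with or without 25 μg/mL kanamycin, also containing 100 μg/mL carbenicillin, 50 μM IPTG and 0.2% rhamnose, and pooled colonies were amplicon-sequenced on an Illumina HiSeq 2500.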

Sequence | self-splicing fitness (ln) (30 °C) | self-splicing fitness (ln) (37 °C)
ACAUAGCAAUAUUACGUAUG | -2.67 ± 0.12 | -1.73 ± 0.12
ACAUAGCAAUAUUACGUCUA | -2.05 ± 0.096 | -1.1 ± 0.083
ACAUAGCAAUAUUACGUUCU | -1.19 ± 0.11 | -0.553 ± 0.12
ACCAAGCAAUAUUACGAAAA | -3.44 ± 0.2 | -2.91 ± 0.23
ACCAAGCAAUAUUACGAACC | -1.62 ± 0.1 | -0.978 ± 0.12
ACCAAGCAAUAUUACGACCG | -1.17 ± 0.096 | -0.119 ± 0.12
ACCAAGCAAUAUUACGACGC | -0.493 ± 0.074 | 0.0307 ± 0.098
ACCAAGCAAUAUUACGACUU | -3.83 ± 0.19 | -1.85 ± 0.12
ACCAAGCAAUAUUACGAUAC | -2.83 ± 0.32 | -1.99 ± 0.3
ACCAAGCAAUAUUACGAUCG | -1.43 ± 0.067 | -0.395 ± 0.093
ACCAAGCAAUAUUACGCCAU | -0.983 ± 0.12 | -1.56 ± 0.16
ACCAAGCAAUAUUACGCCCC | -1.37 ± 0.35 | 0.27 ± 0.24
ACCAAGCAAUAUUACGCCGC | -3.04 ± 0.24 | -0.837 ± 0.18
ACCAAGCAAUAUUACGCCUA | -1.04 ± 0.11 | -0.201 ± 0.11
ACCAAGCAAUAUUACGGACG | -1.09 ± 0.069 | -0.0232 ± 0.083
ACCAAGCAAUAUUACGGAGC | -3.33 ± 0.23 | -3.2 ± 0.33
ACCAAGCAAUAUUACGGCAC | -0.797 ± 0.091 | -0.913 ± 0.11
ACCAAGCAAUAUUACGGCGU | -1 ± 0.05 | 0.0505 ± 0.064
ACCAAGCAAUAUUACGGGCU | -1.12 ± 0.058 | -1.16 ± 0.083
ACCAAGCAAUAUUACGGGGC | -3.74 ± 0.18 | -2.1 ± 0.14
ACCAAGCAAUAUUACGUACC | -1.57 ± 0.17 | -1.32 ± 0.17
ACCAAGCAAUAUUACGUAGA | -2.66 ± 0.14 | -2.04 ± 0.16
ACCAAGCAAUAUUACGUCAG | -3.58 ± 0.15 | -1.56 ± 0.1
ACCAAGCAAUAUUACGUCUU | -4.21 ± 0.14 | -2.59 ± 0.12

Sequence | self-splicing fitness (ln) (30 °C) | self-splicing fitness (ln) (37 °C)
ACCAAGCAAUAUUACGUGUG | -2.06 ± 0.048 | -1.1 ± 0.064
ACCAAGCAAUAUUACGUUCU | -1.56 ± 0.06 | -0.915 ± 0.076
ACCAAGCAAUAUUACGUUUU | -3.36 ± 0.1 | -2.29 ± 0.096
ACCCAGCAAUAUUACGAAUC | -2.13 ± 0.12 | -1.45 ± 0.16
ACCCAGCAAUAUUACGAAUG | -3.41 ± 0.13 | -1.2 ± 0.13
ACCCAGCAAUAUUACGAGUC | -4.16 ± 0.15 | -2.3 ± 0.15
ACCCAGCAAUAUUACGAUAA | -2.15 ± 0.091 | -0.0251 ± 0.098
ACCCAGCAAUAUUACGAUGA | -1.43 ± 0.09 | -0.256 ± 0.088
ACCCAGCAAUAUUACGCAUG | -4.1 ± 0.15 | -2.58 ± 0.15
ACCCAGCAAUAUUACGCCUC | -1.05 ± 0.084 | -0.0787 ± 0.11
ACCCAGCAAUAUUACGCGCC | -0.907 ± 0.064 | 0.136 ± 0.094
ACCCAGCAAUAUUACGCUUC | -2.01 ± 0.076 | -1 ± 0.095
ACCCAGCAAUAUUACGGAAG | -2.49 ± 0.091 | -1.02 ± 0.1
ACCCAGCAAUAUUACGGACG | -1.1 ± 0.07 | -0.9 ± 0.08
ACCCAGCAAUAUUACGGAGA | -0.451 ± 0.048 | 0.122 ± 0.063
ACCCAGCAAUAUUACGGGCG | -0.609 ± 0.055 | -0.0252 ± 0.077
ACCCAGCAAUAUUACGGUGC | -1.11 ± 0.069 | -0.261 ± 0.086
ACCCAGCAAUAUUACGGUGG | -3.57 ± 0.15 | -2.76 ± 0.18
ACCCAGCAAUAUUACGGUUC | -2.22 ± 0.072 | -1.32 ± 0.094
ACCCAGCAAUAUUACGGUUU | -0.863 ± 0.041 | 0.0681 ± 0.056
ACCCAGCAAUAUUACGUAGG | -0.517 ± 0.064 | -0.48 ± 0.081
ACCCAGCAAUAUUACGUAUG | -3.89 ± 0.14 | -1.77 ± 0.11
ACCCAGCAAUAUUACGUCAA | -1.88 ± 0.099 | -1.59 ± 0.11
